Test results as given in IntAct's records for PubMed 23208550.

B1: Arrestin domain-containing protein 3 (Homo sapiens), Q96B67 (parent)
chain: MVLGKVKSLTISFDCLNDSNVPVYSSGDTVSGRVNLEVTGEIRVKSLKIHARGHAKVRWTESRNAGSNTAYTQNYTEEVEYFNHKDILIGHERDDDNSEEGFHTIHSGRHEYAFSFELPQTPLATSFEGRHGSVRYWVKAELHRPWLLPVKLKKEFTVFEHIDINTPSLLSPQAGTKEKTLCCWFCTSGPISLSAKIERKGYTPGESIQIFAEIENCSSRMVVPKAAIYQTQAFYAKGKMKEVKQLVANLRGESLSSGKTETWNGKLLKIPPVSPSILDCSIIRVEYSLMVYVDIPGAMDLFLNLPLVIGTIPLHPFGSRTSSVSSQCSMNMNWLSLSLPERPEAPPSYAEVVTEEQRRNNLAPVSACDDFERALQGPLFAYIQEFRFLPPPLYSEIDPNPDQSADDRPSCPSR

Tests used:
[1] = variants of: B1; conditions: with nedd4_human NEDD4, P46934
hgs_human HGS, O14964 = variants of: B1; conditions: with hgs_human HGS
[2] = variants of: B1; conditions: with adrb2_human ADRB2, P07550
[3] = variants of: B1; conditions: with adrb2_human ADRB2, P07550; remark: listed apart in the source

Sequence of hgs_human HGS, O14964 (O14964 whole entry): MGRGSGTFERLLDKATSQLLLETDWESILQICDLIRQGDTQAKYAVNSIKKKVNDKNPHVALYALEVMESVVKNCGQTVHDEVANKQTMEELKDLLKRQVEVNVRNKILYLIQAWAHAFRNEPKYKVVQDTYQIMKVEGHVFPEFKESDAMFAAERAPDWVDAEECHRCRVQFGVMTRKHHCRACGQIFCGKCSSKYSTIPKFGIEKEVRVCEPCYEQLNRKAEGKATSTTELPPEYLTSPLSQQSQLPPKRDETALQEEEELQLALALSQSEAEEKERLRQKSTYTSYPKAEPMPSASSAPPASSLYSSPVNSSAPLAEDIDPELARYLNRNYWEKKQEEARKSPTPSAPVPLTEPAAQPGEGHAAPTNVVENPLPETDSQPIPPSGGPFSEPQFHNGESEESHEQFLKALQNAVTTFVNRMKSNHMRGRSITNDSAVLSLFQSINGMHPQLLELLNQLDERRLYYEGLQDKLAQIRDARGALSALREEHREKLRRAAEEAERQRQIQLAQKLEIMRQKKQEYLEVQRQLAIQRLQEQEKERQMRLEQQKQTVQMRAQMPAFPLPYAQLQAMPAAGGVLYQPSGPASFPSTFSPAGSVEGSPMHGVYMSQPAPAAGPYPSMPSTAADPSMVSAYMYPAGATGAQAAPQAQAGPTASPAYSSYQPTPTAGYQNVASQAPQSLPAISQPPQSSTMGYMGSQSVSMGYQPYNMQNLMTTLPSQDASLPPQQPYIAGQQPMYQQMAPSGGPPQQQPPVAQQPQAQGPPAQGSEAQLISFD
Sequence of nedd4_human NEDD4, P46934 (P46934 whole entry): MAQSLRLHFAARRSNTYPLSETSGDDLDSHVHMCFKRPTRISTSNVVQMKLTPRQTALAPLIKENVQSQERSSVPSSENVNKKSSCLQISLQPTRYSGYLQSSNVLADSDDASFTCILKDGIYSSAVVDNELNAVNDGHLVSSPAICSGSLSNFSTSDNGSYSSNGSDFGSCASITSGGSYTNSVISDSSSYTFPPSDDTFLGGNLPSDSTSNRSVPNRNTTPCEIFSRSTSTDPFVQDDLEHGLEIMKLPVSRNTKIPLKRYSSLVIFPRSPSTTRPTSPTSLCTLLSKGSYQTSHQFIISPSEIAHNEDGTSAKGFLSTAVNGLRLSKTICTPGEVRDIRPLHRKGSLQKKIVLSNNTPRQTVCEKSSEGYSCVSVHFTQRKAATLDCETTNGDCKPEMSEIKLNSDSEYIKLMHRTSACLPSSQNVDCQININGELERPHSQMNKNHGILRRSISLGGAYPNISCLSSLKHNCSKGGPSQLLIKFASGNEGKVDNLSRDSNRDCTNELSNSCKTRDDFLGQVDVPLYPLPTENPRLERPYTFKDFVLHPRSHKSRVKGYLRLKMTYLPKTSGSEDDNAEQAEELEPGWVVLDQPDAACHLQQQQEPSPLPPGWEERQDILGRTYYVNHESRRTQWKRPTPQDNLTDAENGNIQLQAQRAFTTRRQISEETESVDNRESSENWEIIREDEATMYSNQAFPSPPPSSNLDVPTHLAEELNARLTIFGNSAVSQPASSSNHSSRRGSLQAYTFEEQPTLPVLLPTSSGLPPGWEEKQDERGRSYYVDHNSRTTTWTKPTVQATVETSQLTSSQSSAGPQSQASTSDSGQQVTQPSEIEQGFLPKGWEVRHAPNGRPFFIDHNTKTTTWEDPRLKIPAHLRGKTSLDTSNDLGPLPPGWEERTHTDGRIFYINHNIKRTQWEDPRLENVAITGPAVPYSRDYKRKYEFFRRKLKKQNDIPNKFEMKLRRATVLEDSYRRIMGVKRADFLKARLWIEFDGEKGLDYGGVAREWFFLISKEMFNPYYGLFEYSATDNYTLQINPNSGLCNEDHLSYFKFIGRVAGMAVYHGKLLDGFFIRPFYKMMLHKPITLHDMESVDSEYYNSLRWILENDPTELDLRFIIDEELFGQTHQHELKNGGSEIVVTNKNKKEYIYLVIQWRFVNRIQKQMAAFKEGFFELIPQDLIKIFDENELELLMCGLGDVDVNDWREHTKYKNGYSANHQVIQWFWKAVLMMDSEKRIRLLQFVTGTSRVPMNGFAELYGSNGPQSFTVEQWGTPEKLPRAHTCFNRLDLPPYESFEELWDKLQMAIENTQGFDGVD

Row | effect of a mutation on the interaction [1] | effect of a mutation on the interaction (hgs_human HGS, O14964) | effect of a mutation on the interaction [2] | effect of a mutation on the interaction [3] | Variant
1 | disrupting interaction | disrupting interaction | decreasing interaction | disrupting interaction | MVLGKVKSLTISFDCLNDSNVPVYSSGDTVSGRVNLEVTGEIRVKSLKIHARGHAKVRWTESRNAGSNTAYTQNYTEEVEYFNHKDILIGHERDDDNSEEGFHTIHSGRHEYAFSFELPQTPLATSFEGRHGSVRYWVKAELHRPWLLPVKLKKEFTVFEHIDINTPSLLSPQAGTKEKTLCCWFCTSGPISLSAKIERKGYTPGESIQIFAEIENCSSRMVVPKAAIYQTQAFYAKGKMKEVKQLVANLRGESLSSGKTETWNGKLLKIPPVSPSILDCSIIRVEYSLMVYVDIPGAMDLFLNLPLVIGTIPLHPFGSRTSSVSSQCSMNMNWLSLSLPERPEAPASYAEVVTEEQRRNNLAPVSACDDFERALQGPLFAYIQEFRFLPPPLYSEIDPNPDQSADDRPSCPSR [P347A]
2 | disrupting interaction | disrupting interaction | decreasing interaction | disrupting interaction | MVLGKVKSLTISFDCLNDSNVPVYSSGDTVSGRVNLEVTGEIRVKSLKIHARGHAKVRWTESRNAGSNTAYTQNYTEEVEYFNHKDILIGHERDDDNSEEGFHTIHSGRHEYAFSFELPQTPLATSFEGRHGSVRYWVKAELHRPWLLPVKLKKEFTVFEHIDINTPSLLSPQAGTKEKTLCCWFCTSGPISLSAKIERKGYTPGESIQIFAEIENCSSRMVVPKAAIYQTQAFYAKGKMKEVKQLVANLRGESLSSGKTETWNGKLLKIPPVSPSILDCSIIRVEYSLMVYVDIPGAMDLFLNLPLVIGTIPLHPFGSRTSSVSSQCSMNMNWLSLSLPERPEAAPSYAEVVTEEQRRNNLAPVSACDDFERALQGPLFAYIQEFRFLPPPLYSEIDPNPDQSADDRPSCPSR [P346A]
